Laboratory results from patent US20220041691A1, “METHODS FOR DIAGNOSING OR TREATING POST-TRAUMATIC STRESS DISORDER, AND COMPOSITIONS THEREFOR” (Centre for Addiction and Mental Health, priority 2018, published 2022).
Entries after “also recorded” stand apart in the source; their conditions may differ. Read-outs that look alike come from different tables or passages of the source. Values belong to the molecule of their own block, whether it stands above or below them. Ends that are not written are not given here.

Assays:
[1] = target: T1, FKBP51-TPR (Homo sapiens, UniProt Q13451); assay: Surface plasmon resonance, binding of FKBP51 TPR domain to GR and its phosphorylation mutants; settings: Flag-tagged GR immobilized on sensor chip, 25° C.
T1 construct: made in house; host or cells: bacteria
T1 sequence (Q13451 258-457): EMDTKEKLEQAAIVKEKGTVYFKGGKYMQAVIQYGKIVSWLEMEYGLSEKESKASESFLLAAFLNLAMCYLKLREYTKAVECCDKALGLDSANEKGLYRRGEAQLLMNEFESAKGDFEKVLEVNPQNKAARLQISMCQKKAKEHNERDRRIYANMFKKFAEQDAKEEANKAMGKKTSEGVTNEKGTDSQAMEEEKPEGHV
Protocol: The binding of FKBP51 TPR domain to GR and its phosphorylation mutants was determined by surface plasmon resonance using a Reichert SR7500DC instrument. Experiments were conducted at 25° C. with 2000 RU HEK293 expressed FLAG-tagged GR bound onto a FLAG antibody-coated Dextran 50,000 Da chip. Running buffer (PBS, pH 7.4 with 0.005% Tween 20) was used with a flow rate of 25 μl/min. With association time of 300s and dissociation of 240s, binding signals were determined by injecting various concentrations of the GST-FKBP51_TPR.

[2] = target: T2, FKBP51 (Mus musculus, UniProt Q64378); assay: GST pull-down of FKBP51 by GST-GR fragments in mouse brain tissue; type: binding
T2 construct: from tissue; host or cells: mouse brain
T2 sequence (Q64378 1-456): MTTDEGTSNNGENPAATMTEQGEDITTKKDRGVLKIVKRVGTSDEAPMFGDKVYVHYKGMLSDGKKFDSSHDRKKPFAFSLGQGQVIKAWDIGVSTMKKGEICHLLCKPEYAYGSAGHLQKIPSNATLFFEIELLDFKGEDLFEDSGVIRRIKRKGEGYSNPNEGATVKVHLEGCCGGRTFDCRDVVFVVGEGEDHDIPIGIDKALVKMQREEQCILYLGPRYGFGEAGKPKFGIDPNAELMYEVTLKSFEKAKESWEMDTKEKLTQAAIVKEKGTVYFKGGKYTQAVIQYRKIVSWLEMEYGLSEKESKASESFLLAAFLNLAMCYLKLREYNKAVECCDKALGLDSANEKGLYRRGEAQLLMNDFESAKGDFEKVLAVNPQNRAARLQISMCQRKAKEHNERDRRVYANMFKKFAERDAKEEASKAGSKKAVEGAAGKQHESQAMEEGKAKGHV
Source text: The present inventors identified that if increased GR-FKBP51 complex levels are part of the pathophysiology of PTSD, then disrupting the complex may rescue behaviors related to PTSD. To develop an agent (in this example, a peptide-based agent) capable of blocking the GR-FKBP51 interaction, experiments were first performed to identify the regions of the GR that are important to bind FKBP51 (and vice versa). Initially, GST-fusion proteins were used encoding the amino-terminus (NT) of GR (GRNT) and the carboxyl-terminus (CT) of GR (GRCT) for affinity purification. […] Extending this strategy, GRNT fragments were examined (see FIG. 8, where the 6 tested GRNT fragments, NT-1, NT-2, NT-3, NT-4, NT-5, and NT-6 are shown). […] Similarly, it was determined that the TPR (tetratricopeptide repeat) domains of FKBP51 bind GR (FIG. 2D). In these studies, GST-fusion proteins of 3 different portions of the FKBP51 protein were prepared (FK1, FK2, and TPR, see FIG. 9) and tested. The TPR fragment was identified as containing the relevant interaction region.
GST-fusion proteins encoding truncated GR fragments were amplified by PCR from full-length human cDNA clones. All constructs were sequenced to confirm the absence of PCR-generated errors. GST-fusion proteins were prepared from bacterial lysates with glutathione sepharose 4B beads as instructed by the manufacturer (Amersham).^25 To construct GST-fusion proteins encoding truncated GR, cDNA fragments were amplified by using PCR with specific primers. 5′ and 3′ oligonucleotides incorporated with specific restriction enzyme sites were used to facilitate sub-cloning into the pGEX-4T3 vector. To confirm appropriate splice fusion and correct nucleotide sequences, all constructs were re-sequenced.

[3] = target: T3, glucocorticoid receptor (GR), endogenous, mouse brain / mouse lymphocyte lysate (mouse, UniProt P06537 1-792, limits assumed); assay: GST pull-down from mouse brain tissue, Western blot
T3 construct: Endogenous protein in tissue lysate; other cellular proteins are present in the co-IP and pull-down experiments; also called mouse GR
T3 sequence (looked up): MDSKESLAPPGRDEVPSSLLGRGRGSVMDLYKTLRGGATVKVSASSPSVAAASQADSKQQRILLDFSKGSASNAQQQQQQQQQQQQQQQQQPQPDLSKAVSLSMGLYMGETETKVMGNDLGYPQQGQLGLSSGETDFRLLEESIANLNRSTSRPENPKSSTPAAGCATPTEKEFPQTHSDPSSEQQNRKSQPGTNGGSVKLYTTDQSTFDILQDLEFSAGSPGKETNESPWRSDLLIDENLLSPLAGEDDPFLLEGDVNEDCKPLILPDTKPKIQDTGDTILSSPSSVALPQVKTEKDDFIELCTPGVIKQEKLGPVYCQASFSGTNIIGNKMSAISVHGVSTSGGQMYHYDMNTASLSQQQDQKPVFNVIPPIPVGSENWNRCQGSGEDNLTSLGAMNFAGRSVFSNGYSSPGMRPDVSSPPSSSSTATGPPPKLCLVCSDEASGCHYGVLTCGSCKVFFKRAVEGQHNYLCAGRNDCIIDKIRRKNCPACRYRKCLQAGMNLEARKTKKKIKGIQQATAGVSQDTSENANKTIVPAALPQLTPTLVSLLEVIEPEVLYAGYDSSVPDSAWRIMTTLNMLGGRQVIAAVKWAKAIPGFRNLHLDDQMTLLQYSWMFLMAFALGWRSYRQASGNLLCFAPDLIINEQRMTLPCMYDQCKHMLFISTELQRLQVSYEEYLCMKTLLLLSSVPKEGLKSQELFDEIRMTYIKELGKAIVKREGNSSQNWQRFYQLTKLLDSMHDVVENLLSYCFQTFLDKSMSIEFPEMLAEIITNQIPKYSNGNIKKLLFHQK

[4] = target: T4, FK506 Binding Protein 51 (FKBP51), endogenous, mouse brain / mouse lymphocyte lysate (mouse, UniProt Q64378 1-456); assay: as above
T4 construct: Endogenous protein in tissue lysate; also called mouse FKBP51
T4 sequence (looked up): T2 sequence (Q64378 1-456)

Molecule: GST-GRNT4-1: GST-fusion protein of GR fragment SPWRSDLLIDENCLL (S211-L225) (also: GST fusion protein)
- pull-down (precipitation) of FKBP51 by GST-GR fragment, Western blot [2]: can “pull-down”

B1: GST-TPR4 (other)
chain: IYANMFKKFAEQDAKEEANKAMGKKTSEGVTNEKGTDSQAMEEEKPEGHV
modifications: also: GST tag fusion, linker not given here
notes: also called FKBP51TPR-4; not shown: glutathione S-transferase (GST) tag; vector stated only for the GR fragments (pGEX-4T3)
- binding result [3]: no binding

B3: GST-GRNT6 (other)
chain: FNVIPPIPVGSENWNRCQGSGDDNLTSLGTLNFPGRTVFSNGYSSPSMRPDVSSPPSSSSTATTGPPPKL
notes: not shown: glutathione S-transferase (GST) tag from the pGEX-4T3 vector
- binding result [4]: no binding

B4: GST-GRNT: GST-fusion protein encoding the amino-terminus of GR (protein)
chain: MDSKESLTPGREENPSSVLAQERGDVMDFYKTLRGGATVKVSASSPSLAVASQSDSKQRRLLVDFPKGSVSNAQQPDLSKAVSLSMGLYMGETETKVMGNDLGFPQQGQISLSSGETDLKLLEESIANLNRSTSVPENPKSSASTAVSAAPTEKEFPKTHSDVSSEQQHLKGQTGTNGGNVKLYTTDQSTFDILQDLEFSSGSPGKETNESPWRSDLLIDENCLLSPLAGEDDSFLLEGNSNEDCKPLILPDTKPKIKDNGDLVLSSPSNVTLPQVKTEKEDFIELCTPGVIKQEKLGTVYCQASFPGANIIGNKMSAISVHGVSTSGGQMYHYDMNTASLSQQQDQKPIFNVIPPIPVGSENWNRCQGSGDDNLTSLGTLNFPGRTVFSNGYSSPSMRPDVSSPPSSSSTATTGPPPKL
modifications: left off: a dimerising Fc or GST
notes: GST-fusion protein encoding the amino-terminus of GR
- pull-down (precipitation) of FKBP51 by GST-GR fragment, Western blot [2]: can “pull-down”; also recorded: precipitated FKBP51

B5: GST-GRCT (GST fusion of the carboxyl-terminus of GR) (other)
chain: CLVCSDEASGCHYGVLTCGSCKVFFKRAVEGQHNYLCAGRNDCIIDKIRRKNCPACRYRKCLQAGMNLEARKTKKKIKGIQQATTGVSQETSENPGNKTIVPATLPQLTPTLVSLLEVIEPEVLYAGYDSSVPDSTWRIMTTLNMLGGRQVIAAVKWAKAIPGFRNLHLDDQMTLLQYSWMFLMAFALGWRSYRQSSANLLCFAPDLIINEQRMTLPCMYDQCKHMLYVSSELHRLQVSYEEYLCMKTLLLLSSVPKDGLKSQELFDEIRMTYIKELGKAIVKREGNSSQNWQRFYQLTKLLDSMHEVVENLLNYCFQTFLDKTMSIEFPEMLAEIITNQIPKYSNGNIKKLLFHQK
notes: as for B3
- binding result [4]: no binding

B8: GST-FK2 (other)
chain: EDGGIIRRTKRKGEGYSNPNEGATVEIHLEGRCGGRMFDCRDVAFTVGEGEDHDIPIGIDKALEKMQREEQCILYLGPRYGFGEAGKPKFGIEPNAELIYEVTLKSFEKAKESW
notes: also called FKBP51FK2; not shown: glutathione S-transferase (GST) tag; vector stated only for the GR fragments (pGEX-4T3)
- binding result [3]: no binding

B9: GST-GRNT1 (other)
chain: MDSKESLTPGREENPSSVLAQERGDVMDFYKTLRGGATVKVSASSPSLAVASQSDSKQRRLLVDFPKGSV
notes: as for B3
- binding result [4]: no binding

B10: GST-GRNT4: GST-fusion protein of GRNT fragment 4 (protein)
chain: SPWRSDLLIDENCLLSPLAGEDDSFLLEGNSNEDCKPLILPDTKPKIKDNGDLVLSSPSNVTLPQVKTEK
modifications: also: GST fusion protein
- pull-down (precipitation) of FKBP51 by GST-GR fragment, Western blot [2]: can “pull-down”
- pull-down (precipitation) of FKBP51 by GST-GR fragment, Western blot ([2]; listed as NT-4): best precipitation of FKBP51

B12: GST-TPR1 (other)
chain: EMDTKEKLEQAAIVKEKGTVYFKGGKYMQAVIQYGKIVSWLEMEYGLSEK
modifications: also: GST tag fusion, linker not given here
notes: also called FKBP51TPR-1; not shown: glutathione S-transferase (GST) tag; vector stated only for the GR fragments (pGEX-4T3)
- binding result [3]: no binding

Continued, values first:

- Kd ([1]; figure legend values, read-out: KD for binding FKBP51-TPR (SPR)): 3.31 µM
- Kd ([1]; read-out: KD for binding FKBP51 (SPR)): 3.31 ± 0.04 µM
Molecule: WT GR: Flag-tagged wild-type glucocorticoid receptor expressed in HEK293

- binding result [4]: no binding
B2: GST-GRNT5 (other)
chain: EDFIELCTPGVIKQEKLGTVYCQASFPGANIIGNKMSAISVHGVSTSGGQMYHYDMNTASLSQQQDQKPI
notes: as for B3

- binding result [3]: no binding
B6: GST-FK1 (other)
chain: MTTDEGAKNNEESPTATVAEQGEDITSKKDRGVLKIVKRVGNGEETPMIGDKVYVHYKGKLSNGKKFDSSHDRNEPFVFSLGKGQVIKAWDIGVATMKKGEICHLLCKPEYAYGSAGSLPKIPSNATLFFEIELLDFKGEDLF
notes: also called FKBP51FK1; not shown: glutathione S-transferase (GST) tag; vector stated only for the GR fragments (pGEX-4T3)

- binding result [4]: no binding
B7: GST-GRNT3 (other)
chain: SSASTAVSAAPTEKEFPKTHSDVSSEQQHLKGQTGTNGGNVKLYTTDQSTFDILQDLEFSSGSPGKETNE
notes: as for B3

- binding result [4]: no binding
B11: GST-GRNT2 (other)
chain: SNAQQPDLSKAVSLSMGLYMGETETKVMGNDLGFPQQGQISLSSGETDLKLLEESIANLNRSTSVPENPK
notes: as for B3

- binding result [3]: no binding
B13: GST-TPR2 (other)
chain: ESKASESFLLAAFLNLAMCYLKLREYTKAVECCDKALGLDSANEKGLYRR
modifications: cysteine pairing not given here; also: GST tag fusion, linker not given here
notes: also called FKBP51TPR-2; not shown: glutathione S-transferase (GST) tag; vector stated only for the GR fragments (pGEX-4T3)
